Columns and labels:
α4β2 = target: T1, α4β2 (Homo sapiens, UniProt P17787+P43681); experiment: Ion channel panel (IonWorks Barracuda): α4β2; type: cell-based; conditions: 100% = no change, <100% = inhibition
T1 construct: host or cells: HEK293 or CHO
Outline: (§1)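 Peptides were tested in duplicate at final 20 μM and 200 nM, with concentration set by amino acid analysis, in HEPES-buffered saline. They were applied for at least 5 min to HEK293 or CHO cells transfected with each channel. Currents were expressed as % inhibition, 1-(Ipeptide/Icontrol)×100, or % activation, Ipeptide/Icontrol×100, against a channel-matched reference compound.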

NR2A = target: T2, NR2A (Homo sapiens, UniProt Q12879); experiment: Ion channel panel (IonWorks Barracuda): NR2A; type: cell-based; conditions: 100% = no change, <100% = inhibition
T2 construct: host or cells: HEK293 or CHO
Outline: as §1

α3β4 = target: T3, α3β4 (Homo sapiens, UniProt P30926+P32297); experiment: Ion channel panel (IonWorks Barracuda): α3β4; type: cell-based; conditions: 100% = no change, <100% = inhibition
T3 construct: host or cells: HEK293 or CHO
Outline: as §1

5HT3a = target: T4, 5HT3a (Homo sapiens, UniProt P46098); experiment: Ion channel panel (IonWorks Barracuda): 5HT3a; type: cell-based
T4 construct: host or cells: HEK293 or CHO
T4 sequence (P46098 whole entry, looked up): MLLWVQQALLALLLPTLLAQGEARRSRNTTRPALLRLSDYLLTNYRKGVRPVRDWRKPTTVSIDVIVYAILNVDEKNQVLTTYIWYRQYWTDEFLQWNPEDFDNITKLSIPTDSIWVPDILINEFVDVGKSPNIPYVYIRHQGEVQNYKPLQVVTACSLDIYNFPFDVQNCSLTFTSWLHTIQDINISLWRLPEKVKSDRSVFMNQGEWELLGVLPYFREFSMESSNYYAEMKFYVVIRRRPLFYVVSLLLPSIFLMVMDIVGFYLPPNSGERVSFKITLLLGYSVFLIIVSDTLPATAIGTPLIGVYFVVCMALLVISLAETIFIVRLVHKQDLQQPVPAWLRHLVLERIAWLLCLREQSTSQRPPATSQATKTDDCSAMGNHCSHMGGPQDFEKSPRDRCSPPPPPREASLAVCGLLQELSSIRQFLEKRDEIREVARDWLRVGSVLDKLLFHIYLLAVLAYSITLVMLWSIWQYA
Outline: as §1

NR2B = target: T5, NR2B (Homo sapiens, UniProt Q13224); experiment: Ion channel panel (IonWorks Barracuda): NR2B; type: cell-based; conditions: 100% = no change, <100% = inhibition
T5 construct: host or cells: HEK293 or CHO
Outline: as §1

Kir2.1 = target: T6, Kir2.1 (Homo sapiens, UniProt P63252); experiment: Ion channel panel (IonWorks Barracuda): Kir2.1; type: cell-based; conditions: 100% = no change, <100% = inhibition
T6 construct: host or cells: HEK293 or CHO
Outline: as §1

Kv1.2 = target: T7, Kv1.2 (Homo sapiens, UniProt P16389); experiment: cell-based; type: cell-based; conditions: 100% = no change, <100% = inhibition
T7 construct: host or cells: HEK293 or CHO
Outline: as §1

Kv1.3 = target: T8, Kv1.3 (Homo sapiens, UniProt P22001); experiment: cell-based; type: cell-based; conditions: 100% = no change, <100% = inhibition
T8 construct: host or cells: HEK293 or CHO
Outline: as §1

Kv1.1 = target: T9, Kv1.1 (Homo sapiens, UniProt Q09470); experiment: cell-based; type: cell-based; conditions: 100% = no change, <100% = inhibition
T9 construct: host or cells: HEK293 or CHO
Outline: as §1

TRPA1 = target: T10, TRPA1 (Homo sapiens, UniProt O75762); experiment: Ion channel panel (IonWorks Barracuda): TRPA1; type: cell-based; conditions: 100% = no change, <100% = inhibition
T10 construct: host or cells: HEK293 or CHO
Outline: as §1

GABA = experiment: Ion channel panel (IonWorks Barracuda): GABA; type: cell-based; conditions: 100% = no change, <100% = inhibition
Outline: as §1

Nav1.7 = target: T11, Nav1.7 (Homo sapiens, UniProt Q15858); experiment: cell-based; type: cell-based; conditions: 100% = no change; for Activity of Nav1.7 with peptide, expressed as a percentage of the reference compound: peptide at 0.2 μM; for Activity of Nav1.7 with peptide (percentage of the reference compound): peptide at 20 μM
T11 construct: host or cells: HEK293 or CHO

Cav2.1 = target: T12, Cav2.1 (Homo sapiens, UniProt O00555); experiment: cell-based; conditions: 100% = no change, <100% = inhibition
T12 construct: host or cells: HEK293 or CHO
Outline: as §1

Cav2.2 = target: T13, Cav2.2 (Homo sapiens, UniProt Q00975); experiment: cell-based; conditions: 100% = no change, <100% = inhibition
T13 construct: host or cells: HEK293 or CHO
Outline: as §1

Kv2.1 = target: T14, Kv2.1 (Homo sapiens, UniProt Q14721); experiment: cell-based; conditions: 100% = no change, <100% = inhibition
T14 construct: host or cells: HEK293 or CHO
Outline: as §1

Nav1.5 = Nav1.5 (Homo sapiens, UniProt Q14524); experiment: in vitro; conditions: 100% = no change; for Activity of Nav1.5 with peptide, expressed as a percentage of the reference compound: peptide at 0.2 μM; for Activity of Nav1.5 with peptide (percentage of the reference compound): peptide at 20 μM
Outline: as §1

hERG = hERG (Homo sapiens, UniProt Q12809); experiment: in vitro; conditions: 100% = no change, <100% = inhibition
Outline: as §1

TRPV1 = target: T15, TRPV1 (Homo sapiens, UniProt Q8NER1); experiment: Ion channel panel (IonWorks Barracuda): TRPV1; type: cell-based; conditions: 100% = no change, <100% = inhibition
T15 construct: host or cells: HEK293 or CHO
Outline: as §1

[1] = first of two Nav1.7 columns (probably TP1)
[2] = second of two Nav1.7 columns (probably TP2)
[3] = first of two Nav1.5 columns (probably TP1)
[4] = second of two Nav1.5 columns (probably TP2)

Chain of Nav1.5 (Q14524 whole entry): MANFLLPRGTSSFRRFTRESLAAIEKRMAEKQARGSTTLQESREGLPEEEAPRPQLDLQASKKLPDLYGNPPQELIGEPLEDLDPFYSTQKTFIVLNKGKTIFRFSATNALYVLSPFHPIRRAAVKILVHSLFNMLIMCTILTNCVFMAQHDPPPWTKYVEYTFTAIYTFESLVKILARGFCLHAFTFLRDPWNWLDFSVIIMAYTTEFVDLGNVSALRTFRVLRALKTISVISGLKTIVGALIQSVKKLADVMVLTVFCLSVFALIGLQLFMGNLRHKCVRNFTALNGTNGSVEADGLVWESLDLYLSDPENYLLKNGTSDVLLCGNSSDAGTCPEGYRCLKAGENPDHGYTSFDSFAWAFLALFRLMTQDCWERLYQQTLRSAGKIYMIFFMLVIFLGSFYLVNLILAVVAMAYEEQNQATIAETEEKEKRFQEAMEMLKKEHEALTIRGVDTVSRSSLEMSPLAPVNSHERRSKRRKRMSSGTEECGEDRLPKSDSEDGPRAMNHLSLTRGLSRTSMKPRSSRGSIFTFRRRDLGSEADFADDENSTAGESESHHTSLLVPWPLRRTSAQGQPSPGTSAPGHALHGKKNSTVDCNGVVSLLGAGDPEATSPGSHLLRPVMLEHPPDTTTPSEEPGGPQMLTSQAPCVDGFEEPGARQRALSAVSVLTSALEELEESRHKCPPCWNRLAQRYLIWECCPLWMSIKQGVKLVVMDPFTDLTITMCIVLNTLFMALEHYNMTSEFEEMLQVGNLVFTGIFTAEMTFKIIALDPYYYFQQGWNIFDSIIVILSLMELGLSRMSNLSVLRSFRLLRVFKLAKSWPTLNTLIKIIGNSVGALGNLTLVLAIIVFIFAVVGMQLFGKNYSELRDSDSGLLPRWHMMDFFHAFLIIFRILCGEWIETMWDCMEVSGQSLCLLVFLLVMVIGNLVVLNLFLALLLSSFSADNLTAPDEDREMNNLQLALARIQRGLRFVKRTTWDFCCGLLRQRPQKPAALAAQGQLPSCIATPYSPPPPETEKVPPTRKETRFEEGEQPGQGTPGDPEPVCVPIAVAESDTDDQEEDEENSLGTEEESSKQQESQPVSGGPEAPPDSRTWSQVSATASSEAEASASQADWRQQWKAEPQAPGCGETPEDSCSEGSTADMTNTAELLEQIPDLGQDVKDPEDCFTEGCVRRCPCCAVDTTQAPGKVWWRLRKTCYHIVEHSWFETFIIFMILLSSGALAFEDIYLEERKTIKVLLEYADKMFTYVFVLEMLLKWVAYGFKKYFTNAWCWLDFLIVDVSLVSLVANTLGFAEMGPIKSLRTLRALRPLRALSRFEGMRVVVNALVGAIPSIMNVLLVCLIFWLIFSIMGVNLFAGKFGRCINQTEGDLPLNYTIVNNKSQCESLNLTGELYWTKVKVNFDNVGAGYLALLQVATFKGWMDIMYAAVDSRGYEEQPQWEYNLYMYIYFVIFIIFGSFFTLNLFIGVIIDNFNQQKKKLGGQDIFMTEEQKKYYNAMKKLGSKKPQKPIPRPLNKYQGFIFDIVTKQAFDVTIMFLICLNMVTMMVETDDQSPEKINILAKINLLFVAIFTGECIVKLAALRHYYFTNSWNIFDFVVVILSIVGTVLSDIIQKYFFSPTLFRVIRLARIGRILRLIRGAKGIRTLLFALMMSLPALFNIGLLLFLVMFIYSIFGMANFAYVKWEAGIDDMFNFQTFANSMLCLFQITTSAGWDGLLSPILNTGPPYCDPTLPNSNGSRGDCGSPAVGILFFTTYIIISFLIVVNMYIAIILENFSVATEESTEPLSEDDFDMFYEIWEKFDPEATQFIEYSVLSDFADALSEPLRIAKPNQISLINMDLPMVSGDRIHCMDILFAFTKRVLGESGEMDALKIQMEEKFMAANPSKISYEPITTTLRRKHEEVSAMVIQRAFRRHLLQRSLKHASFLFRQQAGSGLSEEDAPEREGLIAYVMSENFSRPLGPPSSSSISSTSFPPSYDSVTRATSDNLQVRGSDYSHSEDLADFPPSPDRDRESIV
T11 sequence (Q15858 whole entry): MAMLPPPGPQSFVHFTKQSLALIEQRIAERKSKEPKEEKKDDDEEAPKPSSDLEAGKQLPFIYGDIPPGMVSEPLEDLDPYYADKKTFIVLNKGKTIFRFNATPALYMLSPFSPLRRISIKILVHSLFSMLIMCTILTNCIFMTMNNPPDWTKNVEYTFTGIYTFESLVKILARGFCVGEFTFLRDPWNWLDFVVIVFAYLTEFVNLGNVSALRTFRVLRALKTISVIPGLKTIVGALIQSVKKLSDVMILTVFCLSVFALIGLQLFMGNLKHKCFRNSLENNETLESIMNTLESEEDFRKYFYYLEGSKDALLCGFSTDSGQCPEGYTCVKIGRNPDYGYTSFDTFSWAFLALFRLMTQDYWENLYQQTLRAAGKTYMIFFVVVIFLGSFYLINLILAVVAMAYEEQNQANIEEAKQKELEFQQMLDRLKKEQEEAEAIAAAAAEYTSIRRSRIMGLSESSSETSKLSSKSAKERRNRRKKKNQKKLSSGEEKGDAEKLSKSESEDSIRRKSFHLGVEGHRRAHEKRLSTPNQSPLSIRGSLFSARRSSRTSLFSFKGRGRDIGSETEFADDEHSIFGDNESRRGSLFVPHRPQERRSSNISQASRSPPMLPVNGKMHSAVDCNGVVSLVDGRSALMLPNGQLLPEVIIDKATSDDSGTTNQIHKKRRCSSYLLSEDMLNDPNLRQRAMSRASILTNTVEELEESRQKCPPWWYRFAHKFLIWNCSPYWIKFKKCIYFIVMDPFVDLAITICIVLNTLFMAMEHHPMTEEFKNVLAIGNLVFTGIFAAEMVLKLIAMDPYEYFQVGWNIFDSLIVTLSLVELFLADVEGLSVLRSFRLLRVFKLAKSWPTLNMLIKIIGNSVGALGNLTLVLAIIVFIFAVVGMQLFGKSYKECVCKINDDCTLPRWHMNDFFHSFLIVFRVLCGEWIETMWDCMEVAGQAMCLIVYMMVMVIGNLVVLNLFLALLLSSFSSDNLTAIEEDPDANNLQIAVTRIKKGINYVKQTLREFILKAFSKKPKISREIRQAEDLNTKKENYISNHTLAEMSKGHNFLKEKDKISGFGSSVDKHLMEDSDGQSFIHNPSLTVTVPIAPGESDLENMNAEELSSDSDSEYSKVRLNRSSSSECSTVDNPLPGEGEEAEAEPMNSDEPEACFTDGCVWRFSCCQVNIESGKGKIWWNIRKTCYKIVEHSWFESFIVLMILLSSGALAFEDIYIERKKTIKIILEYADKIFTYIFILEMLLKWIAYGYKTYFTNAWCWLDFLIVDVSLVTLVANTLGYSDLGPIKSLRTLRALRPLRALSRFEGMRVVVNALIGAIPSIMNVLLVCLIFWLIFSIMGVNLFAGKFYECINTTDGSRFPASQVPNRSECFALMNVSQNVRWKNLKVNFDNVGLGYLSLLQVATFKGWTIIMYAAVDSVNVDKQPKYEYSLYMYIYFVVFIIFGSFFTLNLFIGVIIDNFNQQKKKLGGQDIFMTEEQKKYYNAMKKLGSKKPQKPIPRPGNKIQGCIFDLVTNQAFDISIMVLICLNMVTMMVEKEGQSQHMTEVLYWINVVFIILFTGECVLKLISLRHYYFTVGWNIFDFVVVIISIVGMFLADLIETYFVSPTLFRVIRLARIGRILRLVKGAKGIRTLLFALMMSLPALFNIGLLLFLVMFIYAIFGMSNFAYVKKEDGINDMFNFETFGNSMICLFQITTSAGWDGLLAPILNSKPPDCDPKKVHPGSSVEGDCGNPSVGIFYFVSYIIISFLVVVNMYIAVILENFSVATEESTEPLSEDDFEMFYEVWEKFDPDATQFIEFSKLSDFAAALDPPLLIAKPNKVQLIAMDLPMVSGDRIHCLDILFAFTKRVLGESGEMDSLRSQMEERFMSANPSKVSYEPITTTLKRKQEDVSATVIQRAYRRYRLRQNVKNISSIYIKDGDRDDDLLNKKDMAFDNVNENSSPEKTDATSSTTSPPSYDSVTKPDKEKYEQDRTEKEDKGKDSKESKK
T1 sequence (P43681 29-627): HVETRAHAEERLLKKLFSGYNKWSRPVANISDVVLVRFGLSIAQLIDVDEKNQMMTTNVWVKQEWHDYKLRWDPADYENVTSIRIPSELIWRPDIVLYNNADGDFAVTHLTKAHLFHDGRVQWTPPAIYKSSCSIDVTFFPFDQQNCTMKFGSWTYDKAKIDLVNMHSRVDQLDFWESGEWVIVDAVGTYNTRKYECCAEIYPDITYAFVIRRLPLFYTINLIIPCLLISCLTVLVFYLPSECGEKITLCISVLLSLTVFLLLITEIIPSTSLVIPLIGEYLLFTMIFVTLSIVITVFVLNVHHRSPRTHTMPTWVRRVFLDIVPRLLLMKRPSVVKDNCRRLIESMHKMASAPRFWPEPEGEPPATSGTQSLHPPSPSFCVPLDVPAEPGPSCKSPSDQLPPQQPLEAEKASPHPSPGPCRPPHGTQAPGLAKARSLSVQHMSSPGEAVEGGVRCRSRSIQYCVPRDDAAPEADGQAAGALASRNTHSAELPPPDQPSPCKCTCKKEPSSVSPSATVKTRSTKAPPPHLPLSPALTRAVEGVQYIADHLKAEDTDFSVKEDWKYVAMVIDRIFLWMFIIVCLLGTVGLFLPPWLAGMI
T1 sequence (P17787 26-502): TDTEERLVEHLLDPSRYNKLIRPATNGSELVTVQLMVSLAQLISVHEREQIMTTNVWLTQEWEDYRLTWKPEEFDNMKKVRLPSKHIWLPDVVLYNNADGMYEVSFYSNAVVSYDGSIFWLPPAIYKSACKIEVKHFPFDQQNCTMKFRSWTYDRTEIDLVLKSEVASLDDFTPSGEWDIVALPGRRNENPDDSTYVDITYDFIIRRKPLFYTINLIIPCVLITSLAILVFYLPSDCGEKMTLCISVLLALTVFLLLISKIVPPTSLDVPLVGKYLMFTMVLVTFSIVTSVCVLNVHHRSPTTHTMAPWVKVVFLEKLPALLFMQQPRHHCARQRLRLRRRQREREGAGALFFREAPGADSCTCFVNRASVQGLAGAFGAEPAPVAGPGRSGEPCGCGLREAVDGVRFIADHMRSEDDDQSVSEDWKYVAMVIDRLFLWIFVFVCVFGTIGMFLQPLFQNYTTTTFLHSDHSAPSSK

Substance: 10 (GSQVQTNVKCQGGSCASVCRREIGVAAGKCINGKCVCYRN) [compound 10]
- Activity of a4b2 with peptide, expressed as a percentage of the reference compound (α4β2; peptide at 0.2 μM): 96%
- Activity of a4b2 with peptide (percentage of the reference compound) (α4β2; peptide at 20 μM): 94%
- Activity of NR2A with peptide, expressed as a percentage of the reference compound (NR2A; peptide at 0.2 μM): 84%
- Activity of NR2A with peptide (percentage of the reference compound) (NR2A; peptide at 20 μM): 65%
- Activity of a3b4 with peptide, expressed as a percentage of the reference compound (α3β4; peptide at 0.2 μM): 97%
- Activity of a3b4 with peptide (percentage of the reference compound) (α3β4; peptide at 20 μM): 104%
- Activity of 5HT3a with peptide (percentage of the reference compound) (5HT3a): 104%
- Activity of 5HT3a with peptide, expressed as a percentage of the reference compound (5HT3a): 90%
- Activity of NR2B with peptide, expressed as a percentage of the reference compound (NR2B; peptide at 0.2 μM): 82%
- Activity of NR2B with peptide (percentage of the reference compound) (NR2B; peptide at 20 μM): 98%
- Activity of Kir2.1 with peptide, expressed as a percentage of the reference compound (Kir2.1; peptide at 0.2 μM): 100%
- Activity of Kir2.1 with peptide (percentage of the reference compound) (Kir2.1; peptide at 20 μM): 92%
- Activity of Kv1.2 with peptide, expressed as a percentage of the reference compound (Kv1.2; peptide at 0.2 μM): 135%
- Activity of Kv1.2 with peptide (percentage of the reference compound) (Kv1.2; peptide at 20 μM): 77%
- Activity of Kv1.3 with peptide, expressed as a percentage of the reference compound (Kv1.3; peptide at 0.2 μM): 101%
- Activity of Kv1.3 with peptide (percentage of the reference compound) (Kv1.3; peptide at 20 μM): 93%
- Activity of Kv1.1 with peptide, expressed as a percentage of the reference compound (Kv1.1; peptide at 0.2 μM): 117%
- Activity of Kv1.1 with peptide (percentage of the reference compound) (Kv1.1; peptide at 20 μM): 84%
- Activity of TRPA1 with peptide, expressed as a percentage of the reference compound (TRPA1; peptide at 0.2 μM): 108%
- Activity of TRPA1 with peptide (percentage of the reference compound) (TRPA1; peptide at 20 μM): 107%
- Activity of GABA with peptide, expressed as a percentage of the reference compound (GABA; peptide at 0.2 μM): 129%
- Activity of GABA with peptide (percentage of the reference compound) (GABA; peptide at 20 μM): 111%
- Activity of Nav1.7 with peptide, expressed as a percentage of the reference compound (Nav1.7; [1]): 105%
- Activity of Nav1.7 with peptide, expressed as a percentage of the reference compound (Nav1.7; [2]): 98%
- Activity of Nav1.7 with peptide (percentage of the reference compound) (Nav1.7; [1]): 106%
- Activity of Nav1.7 with peptide (percentage of the reference compound) (Nav1.7; [2]): 90%
- Activity of Cav2.1 with peptide, expressed as a percentage of the reference compound (Cav2.1; peptide at 0.2 μM): 104%
- Activity of Cav2.1 with peptide (percentage of the reference compound) (Cav2.1; peptide at 20 μM): 96%
- Activity of Cav2.2 with peptide, expressed as a percentage of the reference compound (Cav2.2; peptide at 0.2 μM): 98%
- Activity of Cav2.2 with peptide (percentage of the reference compound) (Cav2.2; peptide at 20 μM): 94%
- Activity of Kv2.1 with peptide, expressed as a percentage of the reference compound (Kv2.1; peptide at 0.2 μM): 88%
- Activity of Kv2.1 with peptide (percentage of the reference compound) (Kv2.1; peptide at 20 μM): 109%
- Activity of Nav1.5 with peptide, expressed as a percentage of the reference compound (Nav1.5; [3]): 93%
- Activity of Nav1.5 with peptide, expressed as a percentage of the reference compound (Nav1.5; [4]): 90%
- Activity of Nav1.5 with peptide (percentage of the reference compound) (Nav1.5; [3]): 114%
- Activity of Nav1.5 with peptide (percentage of the reference compound) (Nav1.5; [4]): 116%
- Activity of hERG with peptide, expressed as a percentage of the reference compound (hERG; peptide at 0.2 μM): 97%
- Activity of hERG with peptide (percentage of the reference compound) (hERG; peptide at 20 μM): 80%
- Activity of TRPV1 with peptide, expressed as a percentage of the reference compound (TRPV1; peptide at 0.2 μM): 111%
- Activity of TRPV1 with peptide (percentage of the reference compound) (TRPV1; peptide at 20 μM): 98%

Reference: patent US20200262877A1, “ION CHANNEL-BINDING PEPTIDES AND METHODS OF USE THEREOF” (priority 2017, published 2020)
